Laboratory results from paper PMC10939263 (2024).

B1: SRC kinase associated phosphoprotein 1 (SKAP1), wild type, N2-fused [human] / BLK, C1-fused [not stated] (parent complex)
chain 1: MQAAALPEEIRWLLEDAEEFLAEGLRNENLSAVARDHRDHILRGFQQIKARYYWDFQPQGGDIGQDSSDDNHSGTLGLSLTSDAPFLSDYQDEGMEDIVKGAQELDNVIKQGYLEKKSKDHSFFGSEWQKRWCVVSRGLFYYYANEKSKQPKGTFLIKGYGVRMAPHLRRDSKKESCFELTSQDRRSYEFTATSPAEARDWVDQISFLLKDLSSLTIPYEEDEEEEEKEETYDDIDGFDSPSCGSQCRPTILPGSVGIKEPTEEKEEEDIYEVLPDEEHDLEEDESGTRRKGVDYASYYQGLWDCHGDQPDELSFQRGDLIRILSKEYNMYGWWVGELNSLVGIVPKEYLTTAFEVEER
chain 2: not shown
B2: SRC kinase associated phosphoprotein 1 (SKAP1), wild type, N2-fused [human] / SRMS, C1-fused [not stated] (parent complex)
chain 1: B1 chain 1
chain 2: MEPFLRRRLAFLSFFWDKIWPAGGEPDHGTPGSLDPNTDPVPTLPAEPCSPFPQLFLALYDFTARCGGELSVRRGDRLCALEEGGGYIFARRLSGQPSAGLVPITHVAKASPETLSDQPWYFSGVSRTQAQQLLLSPPNEPGAFLIRPSESSLGGYSLSVRAQAKVCHYRVSMAADGSLYLQKGRLFPGLEELLTYYKANWKLIQNPLLQPCMPQKAPRQDVWERPHSEFALGRKLGEGYFGEVWEGLWLGSLPVAIKVIKSANMKLTDLAKEIQTLKGLRHERLIRLHAVCSGGEPVYIVTELMRKGNLQAFLGTPEGRALRLPPLLGFACQVAEGMSYLEEQRVVHRDLAARNVLVDDGLACKVADFGLARLLKDDIYSPSSSSKIPVKWTAPEAANYRVFSQKSDVWSFGVLLHEVFTYGQCPYEGMTNHETLQQIMRGYRLPRPAACPAEVYVLMLECWRSSPEERPSFATLREKLHAIHRCHP
B3: SRC kinase associated phosphoprotein 1 (SKAP1), wild type, N2-fused [human] / FYN (isoform without exon 7), C1-fused [not stated] (parent complex)
chain 1: B1 chain 1
chain 2: not shown
B4: SRC kinase associated phosphoprotein 1 (SKAP1), wild type, N2-fused [human] / LYN, C1-fused [not stated] (parent complex)
chain 1: B1 chain 1
chain 2: MGCIKSKGKDSLSDDGVDLKTQPVRNTERTIYVRDPTSNKQQRPVPESQLLPGQRFQTKDPEEQGDIVVALYPYDGIHPDDLSFKKGEKMKVLEEHGEWWKAKSLLTKKEGFIPSNYVAKLNTLETEEWFFKDITRKDAERQLLAPGNSAGAFLIRESETLKGSFSLSVRDFDPVHGDVIKHYKIRSLDNGGYYISPRITFPCISDMIKHYQKQADGLCRRLEKACISPKPQKPWDKDAWEIPRESIKLVKRLGAGQFGEVWMGYYNNSTKVAVKTLKPGTMSVQAFLEEANLMKTLQHDKLVRLYAVVTREEPIYIITEYMAKGSLLDFLKSDEGGKVLLPKLIDFSAQIAEGMAYIERKNYIHRDLRAANVLVSESLMCKIADFGLARVIEDNEYTAREGAKFPIKWTAPEAINFGCFTIKSDVWSFGILLYEIVTYGKIPYPGRTNADVMTALSQGYRMPRVENCPDELYDIMKMCWKEKAEERPTFDYLQSVLDDFYTATEGQYQQQP
B5: SRC kinase associated phosphoprotein 1 (SKAP1), wild type, N2-fused [human] / FRK, C1-fused [not stated] (parent complex)
chain 1: B1 chain 1
chain 2: MSNICQRLWEYLEPYLPCLSTEADKSTVIENPGALCSPQSQRHGHYFVALFDYQARTAEDLSFRAGDKLQVLDTLHEGWWFARHLEKRRDGSSQQLQGYIPSNYVAEDRSLQAEPWFFGAIGRSDAEKQLLYSENKTGSFLIRESESQKGEFSLSVLDGAVVKHYRIKRLDEGGFFLTRRRIFSTLNEFVSHYTKTSDGLCVKLGKPCLKIQVPAPFDLSYKTVDQWEIDRNSIQLLKRLGSGQFGEVWEGLWNNTTPVAVKTLKPGSMDPNDFLREAQIMKNLRHPKLIQLYAVCTLEDPIYIITELMRHGSLQEYLQNDTGSKIHLTQQVDMAAQVASGMAYLESRNYIHRDLAARNVLVGEHNIYKVADFGLARVFKVDNEDIYESRHEIKLPVKWTAPEAIRSNKFSIKSDVWSFGILLYEIITYGKMPYSGMTGAQVIQMLAQNYRLPQPSNCPQQFYNIMLECWNAEPKERPTFETLRWKLEDYFETDSSYSDANNFIR

Variants of: B1
Test: luciferase complementation assay (normalized luciferase ratio, NLR); HEK293T cells; one experiment; read off a plot

| ratio to parent | Variant |
| --- | --- |
| ~1.8 | chain 1 W333K |

Variants of: B2
Test: as above

| ratio to parent | Variant |
| --- | --- |
| ~1.3 | chain 1 MQAAALPEEIRWLLEDAEEFLAEGLRNENLSAVARDHRDHILRGFQQIKARYYWDFQPQGGDIGQDSSDDNHSGTLGLSLTSDAPFLSDYQDEGMEDIVKGAQELDNVIKQGYLEKKSKDHSFFGSEWQKRWCVVSRGLFYYYANEKSKQPKGTFLIKGYGVRMAPHLRRDSKKESCFELTSQDRRSYEFTATSPAEARDWVDQISFLLKDLSSLTIPYEEDEEEEEKEETYDDIDGFDSPSCGSQCRPTILPGSVGIKEPTEEKEEEDIYEVLPDEEHDLEEDESGTRRKGVDYASYYQGLWDCHGDQPDELSFQRGDLIRILSKEYNMYGKWVGELNSLVGIVPKEYLTTAFEVEER [chain 1 W333K] |

Variants of: B3
Test: as above

| ratio to parent | Variant |
| --- | --- |
| ~1.2 | chain 1 W333K |

Variants of: B4
Test: as above

| ratio to parent | Variant |
| --- | --- |
| ~2 | chain 1 W333K |

Variants of: B5
Test: as above

| ratio to parent | Variant |
| --- | --- |
| ~1.9 | chain 1 MQAAALPEEIRWLLEDAEEFLAEGLRNENLSAVARDHRDHILRGFQQIKARYYWDFQPQGGDIGQDSSDDNHSGTLGLSLTSDAPFLSDYQDEGMEDIVKGAQELDNVIKQGYLEKKSKKHSFFGSEWQKRWCVVSRGLFYYYANEKSKQPKGTFLIKGYGVRMAPHLRRDSKKESCFELTSQDRRSYEFTATSPAEARDWVDQISFLLKDLSSLTIPYEEDEEEEEKEETYDDIDGFDSPSCGSQCRPTILPGSVGIKEPTEEKEEEDIYEVLPDEEHDLEEDESGTRRKGVDYASYYQGLWDCHGDQPDELSFQRGDLIRILSKEYNMYGWWVGELNSLVGIVPKEYLTTAFEVEER [chain 1 D120K] |
| ~1.2 | chain 1 MQAAALPEEIRWLLEDAEEFLAEGLRNENLSAVARDHRDHILRGFQQIKARYYWDFQPQGGDIGQDSSDDNHSGTLGLSLTSDAPFLSDYQDEGMEDIVKGAQELDNVIKQGYLEKKSKDHSFFGSEWQKRWCVVSRGLFYYYANEKSKQPKGTFLIKGYGVRMAPHLRRDSKKESCFELTSQDRRSYEFTATSPAEARDWVDQISFLLKDLSSLTIPYEEDEEEEEKEETYDDIDGFDSPSCGSQCRPTILPGSVGIKEPTEEKEEEDIYEVLPDEEHDLEEDESGTRRKGVDYASYYQGLWDCHGDQPDELSFQRGDLIRILSKEYNMYGKWVGELNSLVGIVPKEYLTTAFEVEER [chain 1 W333K] |
